Here are results for ten molecules from patent publication US20210155689A1 (SHANGHAI PHARMAEXPLORER, published 2021).

Assay [1] addresses T1, human LAG-3 (full length, on the cell surface) (human, UniProt P18627 23-525).
T1 construct: Full-length human LAG-3 expressed on cells; also called HEK293-hLAG-3; HEK293 cells transfected with LAG-3 gene
T1 sequence: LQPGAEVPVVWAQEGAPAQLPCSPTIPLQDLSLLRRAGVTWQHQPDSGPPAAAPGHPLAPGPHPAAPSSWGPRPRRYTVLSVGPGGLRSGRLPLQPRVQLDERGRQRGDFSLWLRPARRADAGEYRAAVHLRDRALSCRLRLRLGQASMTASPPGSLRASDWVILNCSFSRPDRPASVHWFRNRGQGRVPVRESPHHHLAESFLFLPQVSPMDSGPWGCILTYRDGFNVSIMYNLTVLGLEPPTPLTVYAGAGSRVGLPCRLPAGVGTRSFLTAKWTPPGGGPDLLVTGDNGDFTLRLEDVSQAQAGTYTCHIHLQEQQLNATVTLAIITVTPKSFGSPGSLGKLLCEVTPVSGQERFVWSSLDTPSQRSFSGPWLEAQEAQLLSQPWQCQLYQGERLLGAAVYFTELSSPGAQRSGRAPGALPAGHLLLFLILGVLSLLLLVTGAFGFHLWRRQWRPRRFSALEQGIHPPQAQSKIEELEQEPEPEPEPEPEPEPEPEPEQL
Nature of the assay: FACS, HEK293-hLAG-3; 0.013 nM. An excerpt:
(§1) The pIRES plasmid with the monkey-derived full-length gene was transfected into the HEK293 cell line to construct a HEK293 stable cell line containing monkey LAG-3 (herein referred to as HEK293-cLAG-3 stable cell line). The HEK293-hLAG-3 stable cell line and HEK293-cLAG-3 stable cell line were expanded in a T-75 cell culture flask to a 90% confluence. The medium was aspirated, and the cells were washed with HBSS (Hanks' Balanced Salt Solution) 1-2 times, then treated with a enzyme-free cell dissociation fluid (Versene solution: Life technology) and the cells were collected. The cells were washed with HBSS buffer for 1-2 times. After counted, the cells were diluted with HBSS to 1-2×10⁶ cells per ml, added with 1% goat serum blocking solution, incubated on ice for 20-30 minutes, and then washed with HBSS for 2 times by centrifugation. The collected cells were suspended in the FACS buffer (HBSS+1% BSA) to 2×10⁶ cells/ml, added as 100 microliters per well to a 96-well FACS reaction plate, added with 100 microliters per well of the antibody sample to be tested, incubated on ice for 1-2 hours. The plate was washed twice with the FACS buffer by centrifugation, added with 100 microliters of fluorescent (Alexa 488)-labeled secondary antibodies per well, and incubated on ice for 0.5-1.0 hours. The plate was washed 2-3 times with FACS buffer by centrifugation, added with 100 μl fixative solution (4% Paraformaldehyde) per well to suspend the cells. 5-10 minutes later, it was washed 1-2 times with FACS buffer by centrifugation. The cells were suspended with 100 microliters of FACS buffer, FACS (FACSCalibur, BD) was used for detection and the results were analyzed.
In general terms: A flow cytometer gives signals particle by particle.

In assay [2] the target is T2, human LAG-3 on cells (HEK293-hLAG-3 stable cell line) (human, UniProt P18627 23-525).
T2 sequence: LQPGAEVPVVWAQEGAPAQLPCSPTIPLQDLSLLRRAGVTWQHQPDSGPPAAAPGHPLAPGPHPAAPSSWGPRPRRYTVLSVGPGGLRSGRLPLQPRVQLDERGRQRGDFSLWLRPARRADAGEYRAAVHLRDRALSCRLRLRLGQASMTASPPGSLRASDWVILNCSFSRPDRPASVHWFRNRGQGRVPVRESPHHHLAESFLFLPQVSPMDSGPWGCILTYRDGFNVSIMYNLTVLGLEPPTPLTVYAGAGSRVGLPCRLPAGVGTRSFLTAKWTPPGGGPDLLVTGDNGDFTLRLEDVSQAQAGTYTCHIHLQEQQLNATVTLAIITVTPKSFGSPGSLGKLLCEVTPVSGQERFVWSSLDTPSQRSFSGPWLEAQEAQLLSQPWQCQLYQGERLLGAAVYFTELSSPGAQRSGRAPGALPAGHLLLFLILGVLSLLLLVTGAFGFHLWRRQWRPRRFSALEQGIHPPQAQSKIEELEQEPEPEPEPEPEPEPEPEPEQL
The experiment in a line: FACS, HEK293-hLAG-3, antibody 0.013 nM.
Text: as §1

Assay [3] has as its target T3, monkey LAG-3 on cells (HEK293-cLAG-3 stable cell line) (monkey, UniProt P18627 24-525 (human entry)).
T3 construct: Full-length monkey (Chinese monkey) LAG-3 gene expressed on HEK293 cells
T3 chain: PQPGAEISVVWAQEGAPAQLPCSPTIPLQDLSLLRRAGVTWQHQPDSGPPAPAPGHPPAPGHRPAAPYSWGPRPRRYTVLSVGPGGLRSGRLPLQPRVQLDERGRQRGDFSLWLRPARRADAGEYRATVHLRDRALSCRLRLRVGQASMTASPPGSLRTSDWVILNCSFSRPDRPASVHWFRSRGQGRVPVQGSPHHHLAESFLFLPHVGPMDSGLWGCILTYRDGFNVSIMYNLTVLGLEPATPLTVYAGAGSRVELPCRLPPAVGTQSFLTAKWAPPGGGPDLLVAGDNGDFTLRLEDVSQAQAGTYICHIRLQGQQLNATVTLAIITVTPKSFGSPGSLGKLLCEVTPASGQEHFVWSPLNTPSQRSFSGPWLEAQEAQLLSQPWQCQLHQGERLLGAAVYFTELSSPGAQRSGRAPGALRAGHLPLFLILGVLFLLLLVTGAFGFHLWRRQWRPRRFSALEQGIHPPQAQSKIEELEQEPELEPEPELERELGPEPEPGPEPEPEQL
The experiment in a line: FACS, HEK293-cLAG-3, antibody 0.013 nM.
Text: as §1

The target in assay [4] is T4, LAG-3-hFc protein (human LAG-3 extracellular region with hFc tag) (human, UniProt P18627 23-450).
T4 construct: also called hLAG-3-hFc; LAG-3 protein; not shown: human IgG Fc fragment (hFc) of the pCpC vector
T4 sequence: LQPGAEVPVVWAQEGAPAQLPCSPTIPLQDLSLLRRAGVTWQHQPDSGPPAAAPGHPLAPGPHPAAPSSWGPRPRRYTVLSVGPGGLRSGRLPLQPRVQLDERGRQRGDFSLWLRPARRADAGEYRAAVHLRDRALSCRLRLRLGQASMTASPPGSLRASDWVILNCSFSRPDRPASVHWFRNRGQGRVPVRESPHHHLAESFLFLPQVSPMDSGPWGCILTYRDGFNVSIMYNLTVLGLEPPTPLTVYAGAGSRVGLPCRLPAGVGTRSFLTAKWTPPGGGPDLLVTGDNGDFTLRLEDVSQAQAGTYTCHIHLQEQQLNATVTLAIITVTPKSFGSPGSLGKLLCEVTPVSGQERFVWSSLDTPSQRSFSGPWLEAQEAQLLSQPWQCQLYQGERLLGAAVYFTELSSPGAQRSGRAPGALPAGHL
Nature of the assay: FACS, inhibition of LAG-3-hFc binding to MHC II on Raji cells, antibody 0.274 nM. On the procedure: The FACS reaction plate incubating the Raji cells was centrifuged to discard the supernatant. The above mixture was added as 100 μl per well to Raji cells and incubated on ice for 1-2 hours. The plate was washed twice with blocking solution (PBS, 2% fetal bovine serum) by centrifugation, added with 100 microliters of fluorescent (Alexa 488)-labeled secondary antibodies per well, and incubated on ice for 1.0 hours. The plate was washed 2-3 times by centrifugation with blocking solution (PBS, 2% fetal bovine serum), added with 100 microliters of PBS per well to suspend cells, and detected using FACS (FACS Calibur, BD) and the results were analyzed. Wherein, the IgG control was murine IgG, and the data in the table is the inhibition rate (%).

B1: 405B8H3 (mouse antibody purified from hybridoma) (antibody, V domains shown)
VH: QVQLQQSGAELVRPGASVTLSCKASGYTFTDYEMHWVKQTPVHGLEWIGATDPETGNSAYNQKFKGKAIMTADKSSSTAYMELRSLTSEDSAVYYCISTGWNDWGQGTSLTVSS
VL: DIKMTQSPSSMYASLGERVTITCKASQDINSYLSWFQQKPGKSPKTLIYRADRLLDGVPSRFSGSGSGQDYSLTISSLEYGDMGIYYCLQYDEFPYTFGGGTKLEIK
notes: also called mAb103-405B8H3; 405B81-13
In the case of B1, in assay [1], the Mean fluorescence intensity turned out to be 5 MFI.

B2: 105F1E10 mouse-human chimeric antibody (antibody, V domains shown)
VH: EVQLQQSGPELVKPGASVKMSCRASGYTFTDFKMHWMKQSHGKSLEWIGYIAPNNGGTAYNQKFRGKATLTVNESSNTAYMELRSLTSEDSAVYYCVDWDDVDYWGQGTTLTVSS
VL: DIKMTQSPSSMYASLGERVTITCKASQDINSYLSWFQQKSGKSPKTLIYRANRLVDGVPSRFSGSGSGQDYSLTISSLEYEDMGIYYCLQYVEFPLTFGAGTKLELK
notes: also called mAb009-105F1E10
As to B2, the Mean fluorescence intensity was found to be 3.6 in assay [2] and 2.89 in assay [3]. In assay [4], the “Inhibition rate (%)” value is -10.1%.

B3: 105F1E10 (mouse antibody purified from hybridoma) (antibody, V domains shown)
VH: EVQLQQSGPELVKPGASVKMSCRASGYTFTDFKMHWMKQSHGKSLEWIGYIAPNNGGTAYNQKFRGKATLTVNESSNTAYMELRSLTSEDSAVYYCVDWDDVDYWGQGTTLTVSS
VL: DIKMTQSPSSMYASLGERVTITCKASQDINSYLSWFQQKSGKSPKTLIYRANRLVDGVPSRFSGSGSGQDYSLTISSLEYEDMGIYYCLQYVEFPLTFGAGTKLELK
notes: also called mAb009-105F1E10
The molecule B3 yielded a Mean fluorescence intensity in assay [1] of 5 MFI.

B4: 405B8H3 mouse-human chimeric antibody (antibody, V domains shown)
VH: QVQLQQSGAELVRPGASVTLSCKASGYTFTDYEMHWVKQTPVHGLEWIGATDPETGNSAYNQKFKGKAIMTADKSSSTAYMELRSLTSEDSAVYYCISTGWNDWGQGTSLTVSS
VL: DIKMTQSPSSMYASLGERVTITCKASQDINSYLSWFQQKPGKSPKTLIYRADRLLDGVPSRFSGSGSGQDYSLTISSLEYGDMGIYYCLQYDEFPYTFGGGTKLEIK
notes: also called mAb103-405B8H3
As for B4, the Mean fluorescence intensity in assay [2] amounted to 4; in assay [3], 3.52. Moreover, the “Inhibition rate (%)” value in assay [4] worked out at 4.3%.

B5: 409D4E10 (mouse antibody purified from hybridoma) (antibody, V domains shown)
VH: QVQLQQSGAELVRPGASVTLSCKASGNTFTDYEMHWVKQTPVHGLEWIGATDPETDNTAYNQKFKGKAILTTDKSSSTAYMELRSLTSEDSAVYYCITSGWNDWGQGTSLTVSS
VL: DIKMTQSPSSMYASLGERVTITCKASQDINSYLSWFQQKPGKSPKTLIYRANRLLDGVPSRFSGSGSGQDYSLTISSLEYEDMGIYYCLQYNEFPYTFGGGTKLEIK
notes: also called mAb112-409D4E10
Turning to B5, the Mean fluorescence intensity in assay [1] came to 3.3 MFI.

B6: 409B11E12 (mouse antibody purified from hybridoma) (antibody, V domains shown)
VH: QVQLQQSGAELVRPGASVTLSCKASGYTFTDYEMHWVKQTTVHGLEWIGATDPETSYSAYNQKFKGKAILTADKSSSTAYMELRSLTSEDSAVYYCIATGWNDWGQGTSLTVSS
VL: DLKMTQSPSSMYASLGERVTITCKASQDINSYLSWFQQKPGKSPKTLIYRANRLLDGVPSRFSGSGSGQDYSLTISSLEYEDMGIYYCLQYDEFPYTFGGGTKLEIK
notes: also called mAb104-409B11E12
In assay [1], B6 had a Mean fluorescence intensity of 2.9 MFI.

B7: 409B11E12 mouse-human chimeric antibody (antibody, V domains shown)
VH: QVQLQQSGAELVRPGASVTLSCKASGYTFTDYEMHWVKQTTVHGLEWIGATDPETSYSAYNQKFKGKAILTADKSSSTAYMELRSLTSEDSAVYYCIATGWNDWGQGTSLTVSS
VL: DLKMTQSPSSMYASLGERVTITCKASQDINSYLSWFQQKPGKSPKTLIYRANRLLDGVPSRFSGSGSGQDYSLTISSLEYEDMGIYYCLQYDEFPYTFGGGTKLEIK
notes: also called mAb104-409B11E12
For the molecule B7, the Mean fluorescence intensity in assay [2] was determined as 4.1; in assay [3] it was 3.39. Besides, the “Inhibition rate (%)” value in assay [4] came to 4.4%.

B8: 409D4E10 mouse-human chimeric antibody (antibody, V domains shown)
VH: QVQLQQSGAELVRPGASVTLSCKASGNTFTDYEMHWVKQTPVHGLEWIGATDPETDNTAYNQKFKGKAILTTDKSSSTAYMELRSLTSEDSAVYYCITSGWNDWGQGTSLTVSS
VL: DIKMTQSPSSMYASLGERVTITCKASQDINSYLSWFQQKPGKSPKTLIYRANRLLDGVPSRFSGSGSGQDYSLTISSLEYEDMGIYYCLQYNEFPYTFGGGTKLEIK
notes: also called mAb112-409D4E10
As for B8, the Mean fluorescence intensity in assay [2] is 4; in assay [3], 3.36. Further, in assay [4], the “Inhibition rate (%)” value came to 11.3%.

B9: 556F6B8 mouse-human chimeric antibody (antibody, V domains shown)
VH: RVQLKQSGPGLVQPSQSLSITCTVSGFSLIKYGVHWVRQSPGEGLEWLGVIWRGGITDYNAAFMSRLSITKDNSKSQVFFKMNSLQADDTAIYYCAKWDGPLAMDYWGQGTSVTVSS
VL: DIVMTQSHKFLSTSVGDRVSITCKASQDVGTTVAWYQQKPGQSPKLLIYWASTRHTGVPDRFTGSGSGTDFTLTISNVQSEDLADYFCQQYSSYPYTFGGGTKLEIK
notes: also called mAb123-556F6B8; 556F8B8
Consider B9, for which the values for the Mean fluorescence intensity in assay [2] and in assay [3] were 4.2 and 3.46, respectively. Also, in assay [4], the “Inhibition rate (%)” value was found to be 21.5%.

B10: 556F6B8 (mouse antibody purified from hybridoma) (antibody, V domains shown)
VH: RVQLKQSGPGLVQPSQSLSITCTVSGFSLIKYGVHWVRQSPGEGLEWLGVIWRGGITDYNAAFMSRLSITKDNSKSQVFFKMNSLQADDTAIYYCAKWDGPLAMDYWGQGTSVTVSS
VL: DIVMTQSHKFLSTSVGDRVSITCKASQDVGTTVAWYQQKPGQSPKLLIYWASTRHTGVPDRFTGSGSGTDFTLTISNVQSEDLADYFCQQYSSYPYTFGGGTKLEIK
notes: also called mAb123-556F6B8
As for B10, in assay [1], the Mean fluorescence intensity was determined as 3.6 MFI.
